According to patent EP2747783B1 (Ablynx N.V., dated 2017):
Numbering of substitutions follows the chain as printed. Names may count otherwise.

Columns and labels:
[1] = target: T1, human c-Met, cell membrane expressed (A549, BxPC-3, myeloma cells) (human, UniProt P08581 25-1390); test: cell-based or functional assay
[2] = target: T1, human c-Met, cell membrane expressed …; test: cell-based or functional assay; remark: listed apart in the source
[3] = target: T1, human c-Met, cell membrane expressed …; test: cell-based or functional assay; remark: listed apart in the source
[4] = target: T2, recombinant human c-Met/Fc chimera (R&D systems) (human); test: Alphascreen; competition with 100 pM biotinylated hHGF for c-MET/Fc
T2 construct: Bought protein; also called hc-Met/Fc; hu c-Met/Fc
T2 sequence (chain, as listed by the source mutant limits assumed): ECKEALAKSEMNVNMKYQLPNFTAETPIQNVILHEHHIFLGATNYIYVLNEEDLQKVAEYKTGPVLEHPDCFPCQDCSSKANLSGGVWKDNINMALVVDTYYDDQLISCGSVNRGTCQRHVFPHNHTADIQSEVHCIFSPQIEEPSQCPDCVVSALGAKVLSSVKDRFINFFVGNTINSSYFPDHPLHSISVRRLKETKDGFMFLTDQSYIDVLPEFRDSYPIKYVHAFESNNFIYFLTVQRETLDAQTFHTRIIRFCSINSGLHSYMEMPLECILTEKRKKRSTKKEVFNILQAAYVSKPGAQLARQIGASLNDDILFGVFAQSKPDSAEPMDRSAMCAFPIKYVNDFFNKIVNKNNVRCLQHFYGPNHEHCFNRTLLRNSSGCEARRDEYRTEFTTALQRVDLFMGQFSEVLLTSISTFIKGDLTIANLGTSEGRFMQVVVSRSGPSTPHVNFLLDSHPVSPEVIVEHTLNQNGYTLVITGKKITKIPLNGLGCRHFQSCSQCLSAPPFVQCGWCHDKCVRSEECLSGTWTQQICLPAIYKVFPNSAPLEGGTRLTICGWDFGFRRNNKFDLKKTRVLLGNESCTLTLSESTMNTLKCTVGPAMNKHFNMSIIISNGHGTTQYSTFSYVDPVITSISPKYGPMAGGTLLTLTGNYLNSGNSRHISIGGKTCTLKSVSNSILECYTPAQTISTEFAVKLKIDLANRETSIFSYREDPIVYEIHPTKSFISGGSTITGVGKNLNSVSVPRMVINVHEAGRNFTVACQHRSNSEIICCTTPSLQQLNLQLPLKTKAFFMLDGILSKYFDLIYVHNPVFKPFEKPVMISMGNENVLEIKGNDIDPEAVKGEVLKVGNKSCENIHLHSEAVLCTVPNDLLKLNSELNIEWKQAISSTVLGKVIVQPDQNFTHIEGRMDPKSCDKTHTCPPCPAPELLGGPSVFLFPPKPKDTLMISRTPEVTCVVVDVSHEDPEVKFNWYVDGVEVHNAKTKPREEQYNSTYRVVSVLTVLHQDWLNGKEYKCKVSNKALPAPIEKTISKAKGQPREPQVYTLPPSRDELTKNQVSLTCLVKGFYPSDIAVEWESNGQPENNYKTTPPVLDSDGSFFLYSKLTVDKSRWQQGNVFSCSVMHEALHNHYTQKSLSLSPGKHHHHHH

[5] = target: T2, recombinant human c-Met/Fc chimera (R&D …); test: SPR (ProteOn); c-Met/Fc captured by anti-human IgG(Fc)

T1 sequence (P08581 25-1390 limits assumed, form in doubt): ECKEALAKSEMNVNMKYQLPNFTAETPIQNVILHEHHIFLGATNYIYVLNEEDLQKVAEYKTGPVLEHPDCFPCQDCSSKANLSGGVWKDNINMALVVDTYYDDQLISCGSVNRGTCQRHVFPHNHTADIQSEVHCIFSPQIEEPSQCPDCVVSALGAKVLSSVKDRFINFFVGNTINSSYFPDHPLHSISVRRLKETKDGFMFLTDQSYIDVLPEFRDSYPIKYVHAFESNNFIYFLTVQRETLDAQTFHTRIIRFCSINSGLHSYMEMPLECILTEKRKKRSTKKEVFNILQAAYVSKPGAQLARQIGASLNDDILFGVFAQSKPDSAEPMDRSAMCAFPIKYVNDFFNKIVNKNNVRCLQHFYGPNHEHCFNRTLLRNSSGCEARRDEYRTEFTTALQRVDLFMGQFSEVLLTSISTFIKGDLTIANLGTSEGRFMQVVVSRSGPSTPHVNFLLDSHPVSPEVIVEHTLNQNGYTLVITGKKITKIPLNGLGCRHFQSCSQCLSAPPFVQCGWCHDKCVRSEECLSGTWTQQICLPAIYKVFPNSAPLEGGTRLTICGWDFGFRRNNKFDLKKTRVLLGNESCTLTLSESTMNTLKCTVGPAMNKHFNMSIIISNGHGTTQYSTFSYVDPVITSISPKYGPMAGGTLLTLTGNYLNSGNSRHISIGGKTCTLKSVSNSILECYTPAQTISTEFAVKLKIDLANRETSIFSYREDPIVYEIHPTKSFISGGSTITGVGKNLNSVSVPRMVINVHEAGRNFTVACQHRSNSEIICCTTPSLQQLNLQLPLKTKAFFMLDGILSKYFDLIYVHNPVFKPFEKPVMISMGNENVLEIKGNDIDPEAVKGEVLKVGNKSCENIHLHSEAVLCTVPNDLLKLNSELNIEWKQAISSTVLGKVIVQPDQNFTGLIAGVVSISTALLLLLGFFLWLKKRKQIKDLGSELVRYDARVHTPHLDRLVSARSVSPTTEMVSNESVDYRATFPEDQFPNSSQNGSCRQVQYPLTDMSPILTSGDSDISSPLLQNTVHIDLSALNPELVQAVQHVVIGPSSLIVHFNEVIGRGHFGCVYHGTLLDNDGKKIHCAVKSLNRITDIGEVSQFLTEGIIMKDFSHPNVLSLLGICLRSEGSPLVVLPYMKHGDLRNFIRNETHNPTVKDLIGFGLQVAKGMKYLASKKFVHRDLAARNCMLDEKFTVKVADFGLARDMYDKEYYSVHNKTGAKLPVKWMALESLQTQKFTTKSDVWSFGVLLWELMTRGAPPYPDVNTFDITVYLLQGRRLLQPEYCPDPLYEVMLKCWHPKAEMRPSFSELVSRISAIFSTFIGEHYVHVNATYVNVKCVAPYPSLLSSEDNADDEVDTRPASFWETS

B1: 04E09(L49S) (SEQ ID NO: 23) tagged with 3xFlag-His6 (VHH)
VHH: EVQLVESGGGLVQPGGSLRLSCAASGFILDYYAIGWFRQAPGKEREGVSCIDASDDITYYADSVKGRFTISRDNAKNTVYLQMNSLKPEDTGVYYCATPIGLSSSCLLEYDYDYWGQGTLVTVSS
IC50, HGF-dependent c-Met phosphorylation [1]: 3.1 nM

B2: A007900184 (33H10-3xFLAG-His6) (VHH)
VHH: EVQLVESGGGLVQAGGSLRLSCAASGFTFDDYAIGWFRQAPGEEREGVSSISSTYGLTYYADSVKGRFTISSSNAKNTVYLQMNNLKPEDTAVYYCAATPIERLGLDAYEYDYWGQGTLVTVSS
IC50, c-Met phosphorylation [2]: 79 nM

B3: A007901249 (VHH)
VHH: B2 VHH with A14P, E46L, S73D, A75S, N85S, K87R, E102G, R103L, L104I
IC50, Proliferation assay, plate 2 [2]: 1.93 nM
IC50, c-Met phosphorylation [2]: 2.81 nM

B4: A007901248 (VHH)
VHH: B2 VHH with A14P, T28A, E43K, S73D, A75S, N85S, K87R, E102G, R103L, L104I
IC50, c-Met phosphorylation [2]: 11.5 nM

B5: A007901253 (VHH)
VHH: B2 VHH with A14P, S63P, S73D, A75S, N85S, K87R, E102G, R103L, L104I
IC50, c-Met phosphorylation [2]: 4.84 nM

B6: A007901246 (VHH)
VHH: B2 VHH with A14P, T28A, S73D, A75S, N85S, K87R, E102G, R103L, L104I
IC50, Proliferation assay, plate 1 [2]: 1.88 nM
IC50, c-Met phosphorylation [2]: 3.44 nM

B7: A007901245 (VHH)
VHH: B2 VHH with A14P, S73D, A75S, N85S, K87R, E102G, R103L, L104I
IC50, Proliferation assay, plate 1 [2]: 3.69 nM
IC50, c-Met phosphorylation [2]: 5.41 nM

B8: A007901251 (VHH)
VHH: B2 VHH with A14P, E43K, E46L, S73D, A75S, N85S, K87R, E102G, R103L, L104I
IC50, c-Met phosphorylation [2]: 4.98 nM

B9: A007901247 (VHH)
VHH: B2 VHH with A14P, E43K, S73D, A75S, N85S, K87R, E102G, R103L, L104I
IC50, c-Met phosphorylation [2]: 12.8 nM

B10: A007901252 (VHH)
VHH: EVQLVESGGGLVQPGGSLRLSCAASGFAFDDYAIGWFRQAPGKERLGVSSISSTYGLTYYADSVKGRFTISSDNSKNTVYLQMNSLRPEDTAVYYCAATPIGLIGLDAYEYDYWGQGTLVTVSS
IC50, c-Met phosphorylation [2]: 4.16 nM

B11: A007901250 (VHH)
VHH: B10 VHH with K43E
IC50, Proliferation assay, plate 1 [2]: 2.29 nM
IC50, Proliferation assay, plate 2 [2]: 1.32 nM
IC50, c-Met phosphorylation [2]: 2.34 nM

B12: A007901219 (A00790105-9GS-Alb23) (bispecific antibody)
chain: DVQLVESGGGLVQPGGSLRLSCAASGFILDYYAIGWFRQAPGKEREGVLCIDASDDITYYADSVKGRFTISRDNSKNTVYLQMNSLRPEDTAVYYCATPIGLSSSCLLEYDYDYWGQGTLVTVSSGGGGSGGGSEVQLLESGGGLVQPGGSLRLSCAASGFTFRSFGMSWVRQAPGKGPEWVSSISGSGSDTLYADSVKGRFTISRDNSKNTLYLQMNSLRPEDTAVYYCTIGGSLSRSSQGTLVTVSS
notes: also called A007901219 (Alb23)
IC50, cMET phosphorylation assay, + HSA [3]: 4.2 nM
IC50, cMET phosphorylation assay, - HSA [3]: 5.41 nM
fold improved potency as compared to 5D5 Fab v2 [4]: > 5 fold

B13: 04E09(C22A/C92S) (SEQ ID NO: 25) tagged with 3xFlag-His6 (VHH)
VHH: EVQLVESGGGLVQPGGSLRLSAAASGFILDYYAIGWFRQAPGKEREGVLCIDASDDITYYADSVKGRFTISRDNAKNTVYLQMNSLKPEDTGVYYSATPIGLSSSCLLEYDYDYWGQGTLVTVSSGAADYKDHDGDYKDHDIDYKDDDDKGAAHHHHHH
IC50, HGF-dependent c-Met phosphorylation [1]: 3.8 nM

B14: 04E09(C50S/C100bG) (SEQ ID NO: 24) tagged with 3xFlag-His6 (VHH)
VHH: B1 VHH with S49L, C50S, C106G
fold lower on-rate and off-rates against 04E09-9GS-Alb11 and 04E09 (C22A/C92S) [5]: 10 fold
